US20120124684A1

Molecular target: purified glutathione reductase (GR)
Assay: cell-based or functional assay

purified αBC
GR activity in vitro (purified GR with purified αBC, compared to a BSA control; proteins added at a 1:4 molar ratio to GR): 18%
